# Experimental data as given in article PMC11189300.
# B1: Mis12 complex full length: MIS12, PMF1, NSL1, DSN1 mutant PMF1:R195A; PMF1:V198L; DSN1:L290F [human] / KNL1 residues 2,026–2,342 [human] (parent)
# chain 1: SAQNEREKLQIKIDEMDKILKKIDNCLTEMETETKNLEDEEKNNPVEEWDSEMRAAEKELEQLKTEEEELQRNLLELEVQKEQTLAQIDFMQKQRNRTEELLDQLSLSEWDVVEWSDDQAVFTFVYDTIQLTITFEESVVGFPFLDKRYRKIVDVNFQSLLDEDQAPPSSLLVHKLIFQYVEEKESWKKTCTTQHQLPKMLEEFSLVVHHCRLLGEEIEYLKRWGPNYNLMNIDINNNELRLLFSSSAAFAKFEITLFLSAYYPSVPLPSTIQNHVGNTSQDDIATILSKVPLENNYLKNVVKQIYQDLFQDCHFYH
# chain 2: MSVDPMTYEAQFFGFTPQTCMLRIYIAFQDYLFEVMQAVEQVILKKLDGIPDCDISPVQIRKCTEKFLCFMKGHFDNLFSKMEQLFLQLILRIPSNILLPEDKCKETPYSEEDFQHLQKEIEQLQEKYKTELCTKQALLAELEEQKIVQAKLKQTLTFFDELHNVGRDHGTSDFRESLVSLVQNSRKLQNIRDNVEKESKRLKIS
# chain 3: MAEASSANLGSGCEEKRHEGSSSESVPPGTTISRVKLLDTMVDTFLQKLVAAGSYQRFTDCYKCFYQLQPAMTQQIYDKFIAQLQTSIREEISDIKEEGNLEAVLNALDKIVEEGKVRKEPAWRPSGIPEKDLHSVMAPYFLQQRDTLRRHVQKQEAENQQLADAVLAGRRQVEELQLQVQAQQQAWQALHREQRELVAVLREPE
# chain 4: MAGSPELVVLDPPWDKELAAGTESQALVSATPREDFRVRCTSKRAVTEMLQLCGRFVQKLGDALPEEIREPALRDAQWTFESAVQENISINGQAWQEASDNCFMDSDIKVLEDQFDEIIVDIATKRKQYPRKILECVIKTIKAKQEILKQYHPVVHPLDLKYDPDPAPHMENLKCRGETVAKEISEAMKSLPALIEQGEGFSQVLRMQPVIHLQRIHQEVFSSCHRKPDAKPENFITQIETTPTETASRKTSDMVLKRKQTKDCPQRKWYPLRPKKINLDT
# chain 5: MTSVTRSEIIDEKGPVMSKTHDHQLESSLSPVEVFAKTSASLEMNQGVSEERIHLGSSPKKGGNCDLSHQERLQSKSLHLSPQEQSASYQDRRQSWRRASMKETNRRKSLHPIHQGITELSRSISVDLAESKRLGCLLLSSFQFSIQKLEPFLRDTKGFSLESFRAKASSLSEELKHFADGLETDGTLQKCFEDSNGKASDFSLEASVAEMKEYITKFSLERQTWDQLLLHYQQEAKEILSRGSTEAKITEVKVEPMTYLGSSQNEVLNTKPDYQKILQNQSKVFDCMELVMDELQGSVKQLQAFMDESTQCFQKVSVQLGKRSMQQLDPSPARKLLKLQLQNPPAIHGSGSGSCQ
# Variants of: B1
# Assay: ITC
# Settings: with KNL1 residues 2,026–2,342 [human]; syringe KNL1^WT; cell Mis12C^M1
row,Variant,screen value
1,"chain 3 R195A V198L, chain 5 L290F",5.83

# Same assay, conditions: with KNL1 residues 2,026–2,342 [human]; syringe KNL1^WT; cell Mis12C^M2
row,Variant,screen value
1,"chain 3 R195E V198L, chain 5 L290F",-14.3

# Same assay, conditions: with KNL1 residues 2,026–2,342 [human]; syringe KNL1^WT; cell Mis12C^M2; parent: -12
row,Variant,dG
1,"chain 3 R195E V198L, chain 5 L290F",-10.4

# Same assay, conditions: with Mis12 complex (Mis12C), syringe KNL1^M1, cell Mis12C^WT
row,Variant,screen value
1,chain 1 M231A S247W F250A K252A,1.2

# Same assay, conditions: with Mis12 complex (Mis12C), syringe KNL1^M1, cell Mis12C^WT, parent: -12
row,Variant,dG
1,chain 1 M231A S247W F250A K252A,-9.35

# Same assay, conditions: with Mis12 complex (Mis12C), syringe KNL1^M2, cell Mis12C^WT
row,Variant,screen value
1,chain 1 M231A S247W F250A K252E,-16.1

# Same assay, conditions: with Mis12 complex (Mis12C), syringe KNL1^M2, cell Mis12C^WT, parent: -12
row,Variant,dG
1,chain 1 M231A S247W F250A K252E,-9.5
